Reference: publication PMC3358469

Assays:
[1] = target: Dec (phage decoration protein), tagged form not told for the experiment; assay: cryo-EM structure
[2] = target: Dec (phage decoration protein) with a hexa-histidine tag at the C-terminus; assay: cryo-EM structure

Chain of Dec (phage decoration protein), tagged form not told for the experiment (Q8HAE6 whole entry): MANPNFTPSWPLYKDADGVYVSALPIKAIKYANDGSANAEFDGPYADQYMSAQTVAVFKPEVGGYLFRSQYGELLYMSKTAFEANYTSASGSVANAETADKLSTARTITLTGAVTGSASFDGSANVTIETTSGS
Chain of Dec (phage decoration protein) with a hexa-histidine tag at the C-terminus (Q8HAE6 whole entry): as above

| Substance | stoichiometry N [1] | stoichiometry N [2] |
| --- | --- | --- |
| Dec (phage decoration protein), tagged form not told for the experiment (natural protein) | 3 | – |
| Dec (phage decoration protein) with a hexa-histidine tag at the C-terminus (natural protein) | – | 3 |
